According to the supplement of paper PMC9112550, “Optimization of the antimicrobial peptide Bac7 by deep mutational scanning” (BMC Biology, 2022):

Test system: Escherichia coli TOP10
Test: shrunken log2 fold change of peptide-encoding DNA abundance (4.5 h post-induction vs induction); higher = less antimicrobial activity (less host growth inhibition)
Conditions: time post-induction: 4.5 h; library: site-saturation at positions 5, 18, 19, 20
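Also: peptides expressed intracellularly from a pBAD plasmid library in pooled LB shake-flask culture, induced with 0.3% L-arabinose, DNA abundance read by NGS, three biological replicates, DESeq2 with apeglm shrinkage.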

Sequence	shrunken log2 fold change
RRIRDRPPRLPRPRPRPVMPPRP	-0.189
RRIRDRPPRLPRPRPRPVPNPRP	-0.0123
RRIRDRPPRLPRPRPRPVQGPRP	-0.01
RRIRDRPPRLPRPRPRPVRSPRP	0.155
RRIRDRPPRLPRPRPRPVSEPRP	0.514
RRIRDRPPRLPRPRPRPVSKPRP	0.0275
RRIRDRPPRLPRPRPRPVTYPRP	-0.0305
RRIRDRPPRLPRPRPRPVVPPRP	0.0405
RRIRDRPPRLPRPRPRPVWGPRP	0.67
RRIRDRPPRLPRPRPRPVYAPRP	-0.025
RRIRDRPPRLPRPRPRPVYWPRP	-0.469
RRIRDRPPRLPRPRPRPWAEPRP	0.302
RRIRDRPPRLPRPRPRPWAVPRP	-0.066
RRIRDRPPRLPRPRPRPWCYPRP	0.155
RRIRDRPPRLPRPRPRPWECPRP	-0.0018
RRIRDRPPRLPRPRPRPWGSPRP	-0.0321
RRIRDRPPRLPRPRPRPWHDPRP	0.0315
RRIRDRPPRLPRPRPRPWHEPRP	-0.266
RRIRDRPPRLPRPRPRPWHKPRP	-0.11
RRIRDRPPRLPRPRPRPWHPPRP	-0.0206
RRIRDRPPRLPRPRPRPWICPRP	-0.298
RRIRDRPPRLPRPRPRPWIHPRP	-0.0487

Sequence	shrunken log2 fold change
RRIRDRPPRLPRPRPRPWKFPRP	0.0062
RRIRDRPPRLPRPRPRPWNHPRP	-0.00185
RRIRDRPPRLPRPRPRPWNTPRP	-0.166
RRIRDRPPRLPRPRPRPWPDPRP	0.129
RRIRDRPPRLPRPRPRPWWLPRP	0.0758
RRIRDRPPRLPRPRPRPWWNPRP	-0.0921
RRIRDRPPRLPRPRPRPWYYPRP	0.0606
RRIRDRPPRLPRPRPRPYADPRP	-0.155
RRIRDRPPRLPRPRPRPYAVPRP	-0.165
RRIRDRPPRLPRPRPRPYCLPRP	-0.0759
RRIRDRPPRLPRPRPRPYDKPRP	-0.149
RRIRDRPPRLPRPRPRPYGSPRP	-0.0409
RRIRDRPPRLPRPRPRPYIDPRP	-0.0251
RRIRDRPPRLPRPRPRPYIVPRP	0.0363
RRIRDRPPRLPRPRPRPYNSPRP	-0.237
RRIRDRPPRLPRPRPRPYNWPRP	-0.281
RRIRDRPPRLPRPRPRPYPIPRP	0.0369
RRIRDRPPRLPRPRPRPYPPPRP	-0.426
RRIRDRPPRLPRPRPRPYQRPRP	0.058
RRIRDRPPRLPRPRPRPYRHPRP	-0.0137
RRIRDRPPRLPRPRPRPYRNPRP	-0.00595
RRIRDRPPRLPRPRPRPYRWPRP	-0.146

Sequence	shrunken log2 fold change
RRIRDRPPRLPRPRPRPYSLPRP	-0.017
RRIRDRPPRLPRPRPRPYSTPRP	-0.0663
RRIRDRPPRLPRPRPRPYTTPRP	-0.556
RRIRDRPPRLPRPRPRPYWAPRP	-0.0312
RRIRDRPPRLPRPRPRPYWCPRP	0.0158
RRIRDRPPRLPRPRPRPYWEPRP	-0.0419
RRIRDRPPRLPRPRPRPYWKPRP	-0.00829
RRIRDRPPRLPRPRPRPYWRPRP	-0.0818
RRIRERPPRLPRPRPRPAACPRP	0.0165
RRIRERPPRLPRPRPRPAADPRP	0.127
RRIRERPPRLPRPRPRPADVPRP	0.00489
RRIRERPPRLPRPRPRPADWPRP	0.349
RRIRERPPRLPRPRPRPAEAPRP	-0.0209
RRIRERPPRLPRPRPRPAEHPRP	-0.0237
RRIRERPPRLPRPRPRPAEQPRP	-0.163
RRIRERPPRLPRPRPRPAFFPRP	0.00883
RRIRERPPRLPRPRPRPAFKPRP	0.106
RRIRERPPRLPRPRPRPAGDPRP	3.19
RRIRERPPRLPRPRPRPAGHPRP	0.0849
RRIRERPPRLPRPRPRPAGRPRP	0.0837
RRIRERPPRLPRPRPRPAIKPRP	-0.656
RRIRERPPRLPRPRPRPAIQPRP	-0.337

Sequence	shrunken log2 fold change
RRIRERPPRLPRPRPRPAKEPRP	0.0889
RRIRERPPRLPRPRPRPALCPRP	0.0446
RRIRERPPRLPRPRPRPALMPRP	0.129
RRIRERPPRLPRPRPRPAPNPRP	0.258
RRIRERPPRLPRPRPRPAQFPRP	0.383
RRIRERPPRLPRPRPRPARFPRP	0.168
RRIRERPPRLPRPRPRPASVPRP	-0.0789
RRIRERPPRLPRPRPRPATFPRP	-0.177
RRIRERPPRLPRPRPRPATTPRP	-0.0752
RRIRERPPRLPRPRPRPAVRPRP	0.00239
RRIRERPPRLPRPRPRPAWAPRP	0.0704
RRIRERPPRLPRPRPRPAWEPRP	0.506
RRIRERPPRLPRPRPRPCFYPRP	-0.43
RRIRERPPRLPRPRPRPCGMPRP	-0.398
RRIRERPPRLPRPRPRPCHVPRP	-0.0775
RRIRERPPRLPRPRPRPCIDPRP	-0.00146
RRIRERPPRLPRPRPRPCLVPRP	0.0202
RRIRERPPRLPRPRPRPCPGPRP	-0.451
RRIRERPPRLPRPRPRPCPWPRP	-0.278
RRIRERPPRLPRPRPRPCQHPRP	-0.0915
RRIRERPPRLPRPRPRPCRSPRP	-0.0928
RRIRERPPRLPRPRPRPCSMPRP	-0.0884

Sequence	shrunken log2 fold change
RRIRERPPRLPRPRPRPCTKPRP	-0.63
RRIRERPPRLPRPRPRPCWGPRP	0.0218
RRIRERPPRLPRPRPRPCYWPRP	-0.361
RRIRERPPRLPRPRPRPCYYPRP	-0.312
RRIRERPPRLPRPRPRPDACPRP	-0.0198
RRIRERPPRLPRPRPRPDADPRP	0.0155
RRIRERPPRLPRPRPRPDAKPRP	0.0113
RRIRERPPRLPRPRPRPDALPRP	-0.0722
RRIRERPPRLPRPRPRPDDQPRP	-0.252
RRIRERPPRLPRPRPRPDEIPRP	-0.111
RRIRERPPRLPRPRPRPDENPRP	-0.0287
RRIRERPPRLPRPRPRPDERPRP	0.109
RRIRERPPRLPRPRPRPDFAPRP	0.159
RRIRERPPRLPRPRPRPDFQPRP	-0.37
RRIRERPPRLPRPRPRPDGKPRP	0.00926
RRIRERPPRLPRPRPRPDGPPRP	0.115
RRIRERPPRLPRPRPRPDHSPRP	-0.184
RRIRERPPRLPRPRPRPDINPRP	-0.239
RRIRERPPRLPRPRPRPDKDPRP	-0.433
RRIRERPPRLPRPRPRPDLCPRP	-0.00931
RRIRERPPRLPRPRPRPDLRPRP	-0.076
